From PMC3714538

What follows are substances tested against LC3B (protein of the ITC experiments) (UniProt Q9GZQ8) (assay: ITC).

Substance	Kd
OPTN peptide LIR_P0 (no phosphorylation) (from UniProt Q96CV9 169-184)	67 µM
OPTN peptide LIR_P1 (pSer177) (from UniProt Q96CV9 169-184)	13 µM
OPTN peptide LIR_Ptot (all serines phosphorylated) (from UniProt Q96CV9 169-184)	5 µM
